Results reported in patent CN101407544A.

Assays:
[1] = biological target: T1, GP73 in human prostatic hyperplasia tissue sections (前列腺增生组织石蜡切片中的GP73) (human) (UniProt Q8NBJ4); test: immunohistochemistry on paraffin sections
T1 sequence (looked up): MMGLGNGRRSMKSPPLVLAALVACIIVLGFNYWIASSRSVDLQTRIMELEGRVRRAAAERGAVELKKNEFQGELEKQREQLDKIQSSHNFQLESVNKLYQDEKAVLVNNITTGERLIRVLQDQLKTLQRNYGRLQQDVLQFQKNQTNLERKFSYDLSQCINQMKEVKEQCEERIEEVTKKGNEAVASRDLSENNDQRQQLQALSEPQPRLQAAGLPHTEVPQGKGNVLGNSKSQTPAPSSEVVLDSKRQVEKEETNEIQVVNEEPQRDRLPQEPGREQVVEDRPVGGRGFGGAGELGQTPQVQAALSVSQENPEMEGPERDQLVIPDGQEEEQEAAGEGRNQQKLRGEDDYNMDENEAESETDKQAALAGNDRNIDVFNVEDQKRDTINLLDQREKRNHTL

[2] = biological target: T2, 重组人GP73蛋白 His-GP73 (recombinant human Golgi protein 73 fragment with His tag, expressed in E. coli from pET-28-a(+)) (human) (UniProt Q8NBJ4); test: double antibody sandwich ELISA: 6A2 (1 μg/ml) capture, His-GP73 standard, rabbit anti-GP73 serum (1:1000) detection
T2 sequence (looked up): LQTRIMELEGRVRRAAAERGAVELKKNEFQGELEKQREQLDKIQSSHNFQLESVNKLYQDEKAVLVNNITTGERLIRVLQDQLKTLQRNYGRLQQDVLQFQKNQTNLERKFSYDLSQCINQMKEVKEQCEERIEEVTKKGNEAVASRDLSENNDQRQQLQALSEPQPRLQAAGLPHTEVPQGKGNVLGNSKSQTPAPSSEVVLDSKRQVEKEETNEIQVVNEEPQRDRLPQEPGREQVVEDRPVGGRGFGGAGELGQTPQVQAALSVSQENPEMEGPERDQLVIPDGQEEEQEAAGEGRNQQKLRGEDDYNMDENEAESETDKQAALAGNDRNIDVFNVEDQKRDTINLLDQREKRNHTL

B1: 抗GP73单克隆抗体6A2 (anti-GP73 mAb) (antibody, part only; not given: light chain variable region, V domains shown, part only)
VH: DFNIKDTYMHWMKQRPEQGLEWIGRIDPANGNTKYDPKFQGKATITTDTSSNTAYLQLSSLTSEDTAVYYCAREDYGNLWYFDV
效价 (titer in immunohistochemistry) (titer (1:x dilution)) [1]: 1000
最低检测限 (lowest detection limit of the sandwich ELISA) [2]: 0.25 ng/mL
